By Km is commonly meant the concentration of substrate that gives half-maximal velocity. For orientation: kcat means the number of substrate molecules converted per active site and unit of time at saturation. A word on the kcat/Km: it is the turnover number divided by the Michaelis constant.

Changes are numbered by the printed parent chain. Numbers in names are those of the source.

Data set [1] deals with T1, membrane-bound β3GalT5–1 (Homo sapiens, UniProt Q9Y2C3).
T1 construct: gene B3GALT5; full length M1-V310, C-terminal Flag tag, expressed in HEK293 cells, LMNG-extracted, anti-Flag purified
T1 sequence (Q9Y2C3 1-310): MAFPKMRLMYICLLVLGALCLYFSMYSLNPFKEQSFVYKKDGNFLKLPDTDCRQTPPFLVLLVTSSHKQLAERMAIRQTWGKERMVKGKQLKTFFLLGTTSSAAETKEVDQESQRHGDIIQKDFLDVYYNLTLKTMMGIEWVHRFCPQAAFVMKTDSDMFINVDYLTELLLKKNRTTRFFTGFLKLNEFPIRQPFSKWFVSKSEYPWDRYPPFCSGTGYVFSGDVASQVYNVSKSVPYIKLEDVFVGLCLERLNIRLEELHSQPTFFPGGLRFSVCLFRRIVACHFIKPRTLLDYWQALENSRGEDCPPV
As to the kind of experiment: galactosyltransferase activity. It is filed as biochemical. To be noted: UDP-Gal, with or without 1% LMNG.

Data set [2] has as its target T2, soluble β3GalT5-1 (insect) (Homo sapiens, UniProt Q9Y2C3).
T2 construct: gene B3GALT5; crystal: Phe31-Pro308 stated, Asp41-Pro308 visible
T2 sequence (Q9Y2C3 29-310): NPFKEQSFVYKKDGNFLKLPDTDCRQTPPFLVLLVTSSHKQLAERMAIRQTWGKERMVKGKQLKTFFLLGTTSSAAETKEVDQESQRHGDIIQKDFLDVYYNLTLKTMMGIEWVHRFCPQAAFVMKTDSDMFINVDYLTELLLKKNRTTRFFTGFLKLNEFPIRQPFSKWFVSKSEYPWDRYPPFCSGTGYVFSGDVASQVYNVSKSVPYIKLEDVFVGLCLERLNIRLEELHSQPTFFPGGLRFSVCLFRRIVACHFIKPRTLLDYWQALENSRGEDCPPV
As to the kind of experiment: X-ray crystal structure. It is filed as binding. To be noted: acceptor site, Mn2+.

In data set [3] the target is T3, membrane-bound β3GalT5–2 (Homo sapiens, UniProt A0A0A0MS93).
T3 construct: gene B3GALT5; full length, 314 residues, C-terminal Flag tag, expressed in HEK293 cells, LMNG-extracted, anti-Flag purified
T3 sequence (A0A0A0MS93 1-314): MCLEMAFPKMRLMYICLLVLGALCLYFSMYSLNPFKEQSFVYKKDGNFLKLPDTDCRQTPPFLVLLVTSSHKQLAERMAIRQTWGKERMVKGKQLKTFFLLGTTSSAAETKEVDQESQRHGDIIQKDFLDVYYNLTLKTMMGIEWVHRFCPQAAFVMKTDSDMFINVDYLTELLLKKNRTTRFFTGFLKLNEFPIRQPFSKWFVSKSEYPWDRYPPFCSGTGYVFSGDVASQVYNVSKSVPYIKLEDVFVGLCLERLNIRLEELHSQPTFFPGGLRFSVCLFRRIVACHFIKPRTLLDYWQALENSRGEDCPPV
As to the kind of experiment: galactosyltransferase activity. It counts as biochemical. To be noted: UDP-Gal, with or without 1% LMNG.

Substrate in data set [4]: C=CCO[C@@H]1O[C@H](CO)[C@@H](O[C@@H]2O[C@H](CO)[C@H](O[C@H]3O[C@H](CO)[C@H](O)[C@H](O[C@@H]4O[C@H](CO)[C@H](O)[C@H](O)[C@H]4NC(C)=O)[C@H]3O)[C@H](O)[C@H]2O)[C@H](O)[C@H]1O
As to the kind of experiment: UDP release, Michaelis-Menten fit. It counts as biochemical, Homo sapiens. To be noted: 0.1 mM UDP-Gal, HEPES, 0.1 mM MnCl2, 0-4 mM substrate; pH 7.0. From the text: UDP release, Michaelis-Menten fit on soluble β3GalT5-1 (insect)

Substrate in data set [5]: O=c1ccn([C@@H]2O[C@H](COP(=O)(O)OP(=O)(O)O[C@H]3O[C@H](CO)[C@H](O)[C@H](O)[C@H]3O)[C@@H](O)[C@H]2O)c(=O)[nH]1
As to the kind of experiment: UDP release, Michaelis-Menten fit. It counts as biochemical, Homo sapiens. To be noted: 2 mM Gb4 glycan fixed, 20 mM HEPES pH 7.4, 0.1 mM MnCl2. The source says:
(§1) UDP release, Michaelis-Menten fit on soluble β3GalT5-1 (HEK293)

Substrate in data set [6]: C=CCO[C@@H]1O[C@H](CO)[C@@H](O[C@@H]2O[C@H](CO)[C@H](O[C@H]3O[C@H](CO)[C@H](O)[C@H](O[C@@H]4O[C@H](CO)[C@H](O)[C@H](O)[C@H]4NC(C)=O)[C@H]3O)[C@H](O)[C@H]2O)[C@H](O)[C@H]1O
As to the kind of experiment: UDP release, Michaelis-Menten fit. It is filed as biochemical, Homo sapiens. To be noted: 10 mM UDP-sugar (UDP-Gal) fixed, 20 mM HEPES pH 7.4, 0.1 mM MnCl2.
Text: as §1

Data set [7] in a line: galactosyltransferase activity assay (Figure S6E). To be noted: control: untreated Sf9-expressed enzyme (paucimannose glycoforms).
The nature of data set [8]: Michaelis–Menten kinetics by UDP release. To be noted: glycan changed form; control: Sf9 insect cell-expressed enzyme (paucimannose).

As for `CC(=O)N[C@H]1[C@H](O[C@H]2[C@@H](O)[C@@H](CO)O[C@H](O[C@@H]3[C@H](O)[C@@H](O)[C@H](O[C@H]4[C@H](O)[C@@H](O)C(O)O[C@@H]4CO)O[C@@H]3CO)[C@@H]2O)O[C@H](CO)[C@H](O)[C@@H]1O` (stereo partly shown) [Gb4 glycan], the galactosyltransferase activity entry in data set [1] and in data set [3] was “regardless of whether Gb4 or Gb4 glycan was used as a substrate” in each case. Moreover, in data set [2], the X-ray crystal structure entry is given as “the acceptor substrate Gb4 glycan is represented by pink sticks”.

B1: soluble β3GalT5-1 (insect) (Homo sapiens) (protein)
chain: T2 sequence (Q9Y2C3 29-310)
notes: crystal: Phe31-Pro308 stated, Asp41-Pro308 visible
For the molecule B1, in data set [4], the Michaelis-Menten constant (Km) was 660 ± 400 µM, the kcat amounted to 0.0583 ± 0.00667 s⁻¹ and the specificity constant (kcat/Km) amounted to 88.3 ± 16.7 M⁻¹ s⁻¹.

B2: soluble β3GalT5-1 (HEK293) (Homo sapiens; Q69A) (protein)
chain: T2 sequence (Q9Y2C3 29-310) with Q41A
notes: soluble luminal domain N29-V310, no TM; expressed in HEK293 cells, complex-type N-glycans
With B2, in data set [5], the Km is 300 ± 50 µM, the turnover number (kcat) was found to be 0.0497 ± 0.00333 s⁻¹ and the kcat/Km came out at 165 ± 63.3 M⁻¹ s⁻¹. In addition, in data set [6], the Km came out at 1210 ± 300 µM, the kcat was 0.012 ± 0.00117 s⁻¹ and the kcat/Km was found to be 10 ± 3.33 M⁻¹ s⁻¹.

B3: soluble β3GalT5-1 (HEK293) (Homo sapiens; Q69A/S66A) (protein)
chain: T2 sequence (Q9Y2C3 29-310) with S38A, Q41A
notes: as for B2
In the case of B3, in data set [5], the Km amounted to 320 ± 90 µM, the catalytic constant (kcat) was determined as 0.0273 ± 0.00333 s⁻¹ and the kcat/Km stood at 156 ± 45 M⁻¹ s⁻¹. In addition, in data set [6], the Km came to 1110 ± 300 µM, the kcat came out at 0.00783 ± 0.000833 s⁻¹ and the specificity constant (kcat/Km) worked out at 7 ± 3.33 M⁻¹ s⁻¹.

B4: soluble β3GalT5-1 (HEK293) (Homo sapiens; Q69M) (protein)
chain: T2 sequence (Q9Y2C3 29-310) with Q41M
notes: as for B2
Take B4: in data set [5], the Km amounted to 210 ± 50 µM, the kcat came out at 0.0585 ± 0.005 s⁻¹ and the kcat/Km worked out at 282 ± 103 M⁻¹ s⁻¹. Further, in data set [6], the Km was 420 ± 300 µM, the kcat is 0.0107 ± 0.00167 s⁻¹ and the kcat/Km turned out to be 25.3 ± 8.33 M⁻¹ s⁻¹.

B5: soluble β3GalT5-1 (HEK293) (Homo sapiens) (protein)
chain: T2 sequence (Q9Y2C3 29-310)
notes: as for B2
Regarding B5, in data set [5], the Km amounted to 140 ± 40 µM, the turnover number (kcat) came to 0.125 ± 0.0117 s⁻¹ and the kcat/Km worked out at 870 ± 293 M⁻¹ s⁻¹. For the same molecule, in data set [6], the Km amounted to 1400 ± 200 µM, the kcat came to 0.0448 ± 0.00333 s⁻¹ and the catalytic efficiency (kcat/Km) was 32 ± 16.7 M⁻¹ s⁻¹.

B6: soluble β3GalT5-1 (HEK293) (Homo sapiens; S66A) (protein)
chain: T2 sequence (Q9Y2C3 29-310) with S38A
notes: as for B2
As to B6, in data set [5], the Km is 350 ± 100 µM, the kcat is 0.276 ± 0.0417 s⁻¹ and the kcat/Km came to 781 ± 408 M⁻¹ s⁻¹. Also, in data set [6], the Km was found to be 1200 ± 200 µM, the catalytic constant (kcat) was 0.0777 ± 0.005 s⁻¹ and the kcat/Km came to 64.8 ± 31.7 M⁻¹ s⁻¹.

B7: soluble β3GalT5-1 (HEK293) (Homo sapiens; Q69M/S66A) (protein)
chain: T2 sequence (Q9Y2C3 29-310) with S38A, Q41M
notes: as for B2
B7: in data set [5], the Km came to 270 ± 60 µM, the kcat is 0.0773 ± 0.00667 s⁻¹ and the kcat/Km is 284 ± 113 M⁻¹ s⁻¹. In addition, in data set [6], the Km amounted to 1650 ± 400 µM, the turnover number (kcat) was determined as 0.0248 ± 0.00167 s⁻¹ and the kcat/Km stood at 15 ± 6.67 M⁻¹ s⁻¹.

B8: β3GalT5–1 (soluble domain): PNGase F (protein)
parent chain: T1 sequence (Q9Y2C3 1-310)
Take B8: in data set [7] (glycan lost), the “enzymatic_activity, fold_change” value is listed as “decreases”.

B9: β3GalT5–1 (soluble domain): kifunensine (high mannose glycoforms) (protein)
parent chain: T1 sequence (Q9Y2C3 1-310)
B9: the “enzymatic_activity, fold_change” value in data set [7] (glycan changed form) was “increases”.

B10: β3GalT5–1 (soluble domain): kifunensine then Endo-H (mono-GlcNAc) (protein)
parent chain: T1 sequence (Q9Y2C3 1-310)
B10: the “enzymatic_activity, fold_change” value in data set [7] (glycan lost) is on record as “increases”.

B11: β3GalT5–1 (soluble domain): expression in HEK293 (complex-type glycoforms) (protein)
parent chain: T1 sequence (Q9Y2C3 1-310)
In the case of B11, in data set [8], the “enzymatic_activity, kcat_Km” value is given as “no change, 5.2 ± 3.0 vs 5.3 ± 1.0”.

The values above are taken from PMC11969553, “Expression of Human β3GalT5–1 in Insect Cells as Active Glycoforms for the Efficient Synthesis of Cancer-Associated Globo-Series Glycans” (Journal of the American Chemical Society, 2025).
